Where two headings read alike, the source gives them in different places. Square brackets hold non-standard residues; d marks the D form. Ends that are not written are not given here. Phe(3-F) = N[C@@H](Cc1cccc(F)c1)C(=O)O; Phe(4-F) = N[C@@H](Cc1ccc(F)cc1)C(=O)O; 1Nal = N[C@@H](Cc1cccc2ccccc12)C(=O)O; 2Nal = N[C@@H](Cc1ccc2ccccc2c1)C(=O)O; hPhe = N[C@@H](CCc1ccccc1)C(=O)O; Tic = O=C(O)[C@@H]1Cc2ccccc2CN1; Cha = N[C@@H](CC1CCCCC1)C(=O)O; Nle = CCCC[C@H](N)C(=O)O; Nva = CCC[C@H](N)C(=O)O; Abu = CC[C@H](N)C(=O)O
B1: H-His-Ala-Lys-Arg-Arg-Leu-Nva-Phe-NH2 (peptide)
peptide: H-HAKRRL[Nva]F-NH2
SMILES: CCC[C@H](NC(=O)[C@H](CC(C)C)NC(=O)[C@H](CCCNC(=N)N)NC(=O)[C@H](CCCNC(=N)N)NC(=O)[C@H](CCCCN)NC(=O)[C@H](C)NC(=O)[C@@H](N)Cc1c[nH]cn1)C(=O)N[C@@H](Cc1ccccc1)C(N)=O
B2: H-His-Ala-Lys-Arg-Arg-Leu-Ile-mFPhe-NH2 (peptide)
peptide: H-HAKRRLI[Phe(3-F)]-NH2
SMILES: CC[C@H](C)[C@H](NC(=O)[C@H](CC(C)C)NC(=O)[C@H](CCCNC(=N)N)NC(=O)[C@H](CCCNC(=N)N)NC(=O)[C@H](CCCCN)NC(=O)[C@H](C)NC(=O)[C@@H](N)Cc1c[nH]cn1)C(=O)N[C@@H](Cc1cccc(F)c1)C(N)=O
B3: H-His-Ala-Lys-Arg-Arg-Leu-Ile-Cha-NH2 (peptide)
peptide: H-HAKRRLI[Cha]-NH2
SMILES: CC[C@H](C)[C@H](NC(=O)[C@H](CC(C)C)NC(=O)[C@H](CCCNC(=N)N)NC(=O)[C@H](CCCNC(=N)N)NC(=O)[C@H](CCCCN)NC(=O)[C@H](C)NC(=O)[C@@H](N)Cc1c[nH]cn1)C(=O)N[C@@H](CC1CCCCC1)C(N)=O
B4: H-His-Ala-Lys-Arg-Arg-Leu-Cha-Phe-NH2 (peptide)
peptide: H-HAKRRL[Cha]F-NH2
SMILES: CC(C)C[C@H](NC(=O)[C@H](CCCNC(=N)N)NC(=O)[C@H](CCCNC(=N)N)NC(=O)[C@H](CCCCN)NC(=O)[C@H](C)NC(=O)[C@@H](N)Cc1c[nH]cn1)C(=O)N[C@@H](CC1CCCCC1)C(=O)N[C@@H](Cc1ccccc1)C(N)=O
B5: P21 N-terminus-LIF hybrid KAURRLIF-NH2 (peptide)
peptide: KAXRRLIF
modifications: U at position 3 (read as Abu); C-terminal carboxamide
B6: H-His-Ala-Lys-Arg-Arg-Leu-Ile-pFPhe-NH2 (peptide)
peptide: H-HAKRRLI[Phe(4-F)]-NH2
SMILES: CC[C@H](C)[C@H](NC(=O)[C@H](CC(C)C)NC(=O)[C@H](CCCNC(=N)N)NC(=O)[C@H](CCCNC(=N)N)NC(=O)[C@H](CCCCN)NC(=O)[C@H](C)NC(=O)[C@@H](N)Cc1c[nH]cn1)C(=O)N[C@@H](Cc1ccc(F)cc1)C(N)=O
B7: H-His-Ala-Lys-Arg-Arg-Leu-Ile-2Nap-NH2 (peptide)
peptide: H-HAKRRLI[2Nal]-NH2
SMILES: CC[C@H](C)[C@H](NC(=O)[C@H](CC(C)C)NC(=O)[C@H](CCCNC(=N)N)NC(=O)[C@H](CCCNC(=N)N)NC(=O)[C@H](CCCCN)NC(=O)[C@H](C)NC(=O)[C@@H](N)Cc1c[nH]cn1)C(=O)N[C@@H](Cc1ccc2ccccc2c1)C(N)=O
B8: H-His-Ala-Lys-Arg-Arg-Leu-Val-Phe-NH2 (peptide)
peptide: H-HAKRRLVF-NH2
B9: H-His-Ala-Lys-Arg-Arg-Leu-Phe-Phe-NH2 (peptide)
peptide: H-HAKRRLFF-NH2
B10: H-His-Ala-Lys-Arg-Arg-Leu-1Nap-Phe-NH2 (peptide)
peptide: H-HAKRRL[1Nal]F-NH2
SMILES: CC(C)C[C@H](NC(=O)[C@H](CCCNC(=N)N)NC(=O)[C@H](CCCNC(=N)N)NC(=O)[C@H](CCCCN)NC(=O)[C@H](C)NC(=O)[C@@H](N)Cc1c[nH]cn1)C(=O)N[C@@H](Cc1cccc2ccccc12)C(=O)N[C@@H](Cc1ccccc1)C(N)=O
B11: H-His-Ala-Lys-Arg-Arg-Leu-Nle-Phe-NH2 (peptide)
peptide: H-HAKRRL[Nle]F-NH2
SMILES: CCCC[C@H](NC(=O)[C@H](CC(C)C)NC(=O)[C@H](CCCNC(=N)N)NC(=O)[C@H](CCCNC(=N)N)NC(=O)[C@H](CCCCN)NC(=O)[C@H](C)NC(=O)[C@@H](N)Cc1c[nH]cn1)C(=O)N[C@@H](Cc1ccccc1)C(N)=O
B12: H-His-Ala-Lys-Arg-Arg-Leu-Ile-Trp-NH2 (peptide)
peptide: H-HAKRRLIW-NH2
B13: H-His-Ala-Lys-Arg-Arg-Leu-Ile-Tyr-NH2 (peptide)
peptide: H-HAKRRLIY-NH2
B14: p21 (152-159) HSKRRLIF-NH2 (peptide)
peptide: HSKRRLIF-NH2
B15: H-His-Ala-Lys-Arg-Arg-Leu-Ile-Tic-NH2 (peptide)
peptide: H-HAKRRLI[Tic]-NH2
SMILES: CC[C@H](C)[C@H](NC(=O)[C@H](CC(C)C)NC(=O)[C@H](CCCNC(=N)N)NC(=O)[C@H](CCCNC(=N)N)NC(=O)[C@H](CCCCN)NC(=O)[C@H](C)NC(=O)[C@@H](N)Cc1c[nH]cn1)C(=O)N1Cc2ccccc2C[C@H]1C(N)=O
B16: H-His-Ala-Lys-Arg-Arg-Leu-Ile-Lys-NH2 (peptide)
peptide: H-HAKRRLIK-NH2
B17: H-His-Ala-Lys-Arg-Arg-Leu-Ala-Phe-NH2 (peptide)
peptide: H-HAKRRLAF-NH2
B18: H-His-Ala-Lys-Arg-Arg-Leu-Ile-Hof-NH2 (peptide)
peptide: H-HAKRRLI[hPhe]-NH2
SMILES: CC[C@H](C)[C@H](NC(=O)[C@H](CC(C)C)NC(=O)[C@H](CCCNC(=N)N)NC(=O)[C@H](CCCNC(=N)N)NC(=O)[C@H](CCCCN)NC(=O)[C@H](C)NC(=O)[C@@H](N)Cc1c[nH]cn1)C(=O)N[C@@H](CCc1ccccc1)C(N)=O
B19: P21 N-terminus peptide KAURRLFG-NH2 (peptide)
peptide: KA[Abu]RRLFG-NH2
B20: H-His-Ala-Lys-Arg-Arg-Leu-Ile-1Nap-NH2 (peptide)
peptide: H-HAKRRLI[1Nal]-NH2
SMILES: CC[C@H](C)[C@H](NC(=O)[C@H](CC(C)C)NC(=O)[C@H](CCCNC(=N)N)NC(=O)[C@H](CCCNC(=N)N)NC(=O)[C@H](CCCCN)NC(=O)[C@H](C)NC(=O)[C@@H](N)Cc1c[nH]cn1)C(=O)N[C@@H](Cc1cccc2ccccc12)C(N)=O
B21: H-His-Ala-Lys-Arg-Arg-Leu-Phe-NH2 (peptide)
peptide: H-HAKRRLF-NH2
B22: H-His-Ala-Lys-Arg-Arg-Leu-Leu-Phe-NH2 (peptide)
peptide: H-HAKRRLLF-NH2
B23: P21 C-terminius-LFG hybrid HSKRRLFG-NH2 (peptide)
peptide: HSKRRLFG-NH2

What was measured:
Experiment in all cases: cell-based or functional assay
CDK2/cyclin A [1] = molecular target: T1, CDK2/cyclin A (UniProt P24941 1-298; P20248 1-432)
CDK2/cyclin A [2] = molecular target: T1, CDK2/cyclin A; remark: listed apart in the source
CDK2/Cyclin E complex [3] = molecular target: T2, CDK2/Cyclin E complex (UniProt P24941 1-298; P24864 1-410)
CDK4/Cyclin D1 complex [4] = molecular target: T3, CDK4/Cyclin D1 complex (UniProt P11802 1-303; P24385 1-295)
T3 sequence (P11802 other isoform, or with tags, fused parts or gaps, chain 1 of 2): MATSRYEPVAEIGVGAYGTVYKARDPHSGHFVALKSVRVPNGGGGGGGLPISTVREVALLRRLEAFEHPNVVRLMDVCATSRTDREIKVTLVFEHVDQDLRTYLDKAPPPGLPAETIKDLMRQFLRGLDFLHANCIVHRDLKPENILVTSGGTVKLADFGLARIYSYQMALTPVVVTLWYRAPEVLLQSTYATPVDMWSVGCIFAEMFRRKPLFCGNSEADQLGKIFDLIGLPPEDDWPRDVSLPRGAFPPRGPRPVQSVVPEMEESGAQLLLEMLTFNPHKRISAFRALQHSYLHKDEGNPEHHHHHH
T3 sequence (P24385 whole entry, chain 2 of 2): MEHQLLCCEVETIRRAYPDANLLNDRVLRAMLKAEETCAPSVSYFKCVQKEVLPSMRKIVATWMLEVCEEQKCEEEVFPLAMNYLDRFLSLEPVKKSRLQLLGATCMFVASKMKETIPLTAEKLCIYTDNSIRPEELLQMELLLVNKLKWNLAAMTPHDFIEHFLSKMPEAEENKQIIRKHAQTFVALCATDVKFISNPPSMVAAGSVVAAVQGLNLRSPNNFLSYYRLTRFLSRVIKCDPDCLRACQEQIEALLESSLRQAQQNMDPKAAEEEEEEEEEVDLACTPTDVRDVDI

CDK2/Cyclin E complex [5] = molecular target: T2, CDK2/Cyclin E complex; remark: listed apart in the source
CDK4/Cyclin D1 complex [6] = molecular target: T3, CDK4/Cyclin D1 complex; remark: listed apart in the source

Row | Binder | Relative activity, Kinase Inhibition (CDK2/cyclin A kinase assay, pRb substrate, [ATP] = 100 µM) (CDK2/cyclin A [1]) | Relative activity, Kinase Inhibition (CDK2/cyclin A kinase assay, pRb substrate, [ATP] = 100 µM) (CDK2/cyclin A [2]) | further results
1 | B1 | 0.2 relative to H-His-Ala-Lys-Arg-Arg-Leu-Ile-Phe-NH2 (=1) | – | –
2 | B2 | – | 0.8 relative to H-His-Ala-Lys-Arg-Arg-Leu-Ile-Phe-NH2 (=1) | –
3 | B3 | – | < 0.1 relative to H-His-Ala-Lys-Arg-Arg-Leu-Ile-Phe-NH2 (=1) | –
4 | B4 | 0.3 relative to H-His-Ala-Lys-Arg-Arg-Leu-Ile-Phe-NH2 (=1) | – | –
5 | B5 | – | – | % Inhibition, cyclin E/CDK2 kinase (CDK2/Cyclin E complex [3]): 78%; % Inhibition, cyclin D1/CDK4 kinase (CDK4/Cyclin D1 complex [4]): 83%; IC50, cyclin D1/CDK4 kinase (CDK4/Cyclin D1 complex [4]): 13 µM
6 | B6 | – | 1 relative to H-His-Ala-Lys-Arg-Arg-Leu-Ile-Phe-NH2 (=1) | –
7 | B7 | – | 1.2 relative to H-His-Ala-Lys-Arg-Arg-Leu-Ile-Phe-NH2 (=1) | –
8 | B8 | 0.8 relative to H-His-Ala-Lys-Arg-Arg-Leu-Ile-Phe-NH2 (=1) | – | –
9 | B9 | 0.4 relative to H-His-Ala-Lys-Arg-Arg-Leu-Ile-Phe-NH2 (=1) | – | –
10 | B10 | 0.5 relative to H-His-Ala-Lys-Arg-Arg-Leu-Ile-Phe-NH2 (=1) | – | –
11 | B11 | 0.4 relative to H-His-Ala-Lys-Arg-Arg-Leu-Ile-Phe-NH2 (=1) | – | –
12 | B12 | – | 0.3 relative to H-His-Ala-Lys-Arg-Arg-Leu-Ile-Phe-NH2 (=1) | –
13 | B13 | – | 0.3 relative to H-His-Ala-Lys-Arg-Arg-Leu-Ile-Phe-NH2 (=1) | –
14 | B14 | – | – | % Inhibition, cyclin E/CDK2 kinase (CDK2/Cyclin E complex [5]): 80%; IC50, cyclin E/CDK2 kinase, GST-pRb (CDK2/Cyclin E complex [5]): 3.4 µM; % Inhibition, cyclin D1/CDK4 kinase (CDK4/Cyclin D1 complex [6]): 72%; % Inhibition, cyclin E/CDK2 kinase (CDK2/Cyclin E complex [3]): 80%; IC50, cyclin E/CDK2 kinase (CDK2/Cyclin E complex [3]): 3.4 µM; % Inhibition, cyclin D1/CDK4 kinase (CDK4/Cyclin D1 complex [4]): 72%
15 | B15 | – | 0.3 relative to H-His-Ala-Lys-Arg-Arg-Leu-Ile-Phe-NH2 (=1) | –
16 | B16 | – | < 0.1 relative to H-His-Ala-Lys-Arg-Arg-Leu-Ile-Phe-NH2 (=1) | –
17 | B17 | 0.3 relative to H-His-Ala-Lys-Arg-Arg-Leu-Ile-Phe-NH2 (=1) | – | –
18 | B18 | – | < 0.1 relative to H-His-Ala-Lys-Arg-Arg-Leu-Ile-Phe-NH2 (=1) | –
19 | B19 | – | – | % Inhibition, cyclin E/CDK2 kinase (CDK2/Cyclin E complex [3]): 86%; IC50, cyclin E/CDK2 kinase (CDK2/Cyclin E complex [3]): 0.074 µM; % Inhibition, cyclin D1/CDK4 kinase (CDK4/Cyclin D1 complex [4]): 66%; IC50, cyclin D1/CDK4 kinase (CDK4/Cyclin D1 complex [4]): 42 µM
20 | B20 | – | 0.2 relative to H-His-Ala-Lys-Arg-Arg-Leu-Ile-Phe-NH2 (=1) | –
21 | B21 | < 0.1 relative to H-His-Ala-Lys-Arg-Arg-Leu-Ile-Phe-NH2 (=1) | – | –
22 | B22 | 1.2 relative to H-His-Ala-Lys-Arg-Arg-Leu-Ile-Phe-NH2 (=1) | – | –
23 | B23 | – | – | % Inhibition, cyclin E/CDK2 kinase (CDK2/Cyclin E complex [3]): 82%; IC50, cyclin E/CDK2 kinase (CDK2/Cyclin E complex [3]): 1.6 µM; % Inhibition, cyclin D1/CDK4 kinase (CDK4/Cyclin D1 complex [4]): 42%

Source: patent US20040176301A1 (CYCLACEL, published 2004)
